Experimental findings from the supplement of paper PMC5998384 are described below.

The test system of series [1] is HeLa Kyoto. As to the kind of experiment: melting temperature (median over replicates), in situ; higher = more thermally stable.
The subject of series [2] is HeLa Kyoto. As to the kind of experiment: thermal stability score vs G1/S (z-score of summed log2 fold changes over temperatures); higher = more thermally stable than in G1/S.
In series [3] the test system is HeLa Kyoto. As to the kind of experiment: solubility change mitosis vs G1/S (difference of NP-40 vs SDS log2 ratios) (log2 ratio difference); higher = more soluble in mitosis.
Series [4] deals with HeLa Kyoto. As to the kind of experiment: solubility in G1/S (NP-40 vs SDS abundance) (log2 ratio); higher = more soluble. The settings on record: cell cycle stage: G1/S.
The mark [5] stands for this setting: cell cycle stage: early G1 (4.5 h after nocodazole release).
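For melting temperature (median over replicates), in situ in this document: HeLa Kyoto cells synchronized by double thymidine or nocodazole block, proteins quantified by TMT10plex mass spectrometry, three independent biological replicates.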
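For solubility change mitosis vs G1/S (difference of NP-40 vs SDS log2 ratios) in this document: synchronized HeLa Kyoto cells (double thymidine block for G1/S, nocodazole release for mitosis), protein amounts in NP-40 versus SDS lysates quantified by mass spectrometry, three biological replicates.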
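For solubility in G1/S (NP-40 vs SDS abundance) in this document: HeLa Kyoto cells arrested at G1/S by double thymidine block, proteins quantified by TMT10plex mass spectrometry in mild NP-40 versus SDS extracts, three biological replicates.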
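For thermal stability score vs G1/S (z-score of summed log2 fold changes over temperatures) in this document: synchronized HeLa Kyoto cells, proteins quantified by TMT10plex mass spectrometry, three biological replicates, mitosis taken 0.5 h after nocodazole release, G1/S directly after double thymidine block.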

Regarding “MATPAGLERWVQDELHSVLGLSERHVAQFLIGTAQRCTSAEEFVQRLRDTDTLDLSGPARDFALRLWNKVPRKAVVEKPARAAEREARALLEKNRSYRLLEDSEESSEETVSRAGSSLQKKRKKRKHLRKKREEEEEEEASEKGKKKTGGSKQQTEKPESEDEWERTERERLQDLEERDAFAERVRQRDKDRTRNVLERSDKKAYEEAQKRLKMAEEDRKAMVPELRKKSRREYLAKREREKLEDLEAELADEEFLFGDVELSRHERQELKYKRRVRDLAREYRAAGEQEKLEATNRYHMPKETRGQPARAVDLVEEESGAPGEEQRRWEEARLGAASLKFGARDAASQEPKYQLVLEEEETIEFVRATQLQGDEEPSAPPTSTQAQQKESIQAVRRSLPVFPFREELLAAIANHQVLIIEGETGSGKTTQIPQYLFEEGYTNKGMKIACTQPRRVAAMSVAARVAREMGVKLGNEVGYSIRFEDCTSERTVLRYMTDGMLLREFLSEPDLASYSVVMVDEAHERTLHTDILFGLIKDVARFRPELKVLVASATMDTARFSTFFDDAPVFRIPGRRFPVDIFYTKAPEADYLEACVVSVLQIHVTQPPGDILVFLTGQEEIEAACEMLQDRCRRLGSKIRELLVLPIYANLPSDMQARIFQPTPPGARKVVVATNIAETSLTIEGIIYVLDPGFCKQKSYNPRTGMESLTVTPCSKASANQRAGRAGRVAAGKCFRLYTAWAYQHELEETTVPEIQRTSLGNVVLLLKSLGIHDLMHFDFLDPPPYETLLLALEQLYALGALNHLGELTTSGRKMAELPVDPMLSKMILASEKYSCSEEILTVAAMLSVNNSIFYRPKDKVVHADNARVNFFLPGGDHLVLLNVYTQWAESGYSSQWCYENFVQFRSMRRARDVREQLEGLLERVEVGLSSCQGDYIRVRKAITAGYFYHTARLTRSGYRTVKQQQTVFIHPNSSLFEQQPRWLLYHELVLTTKEFMRQVLEIESSWLLEVAPHYYKAKELEDPHAKKMPKKIGKTREELG [DHX16]”, the melting temperature in series [1] (cell cycle stage: G1/S) is 49.9 °C; in series [1] (cell cycle stage: mitosis), 50.8 °C. Further, the figures for the thermal stability score in series [2] (setting [5]) and in series [2] (cell cycle stage: mitosis) were 1.68 and 2.22, respectively. In addition, the “solubility change mitosis (log2)” value in series [3] worked out at 0.00704. In addition, the “solubility in G1/S (log2)” value in series [4] is -0.394.
On to “MATPSAAFEALMNGVTSWDVPEDAVPCELLLIGEASFPVMVNDMGQVLIAASSYGRGRLVVVSHEDYLVEAQLTPFLLNAVGWLCSSPGAPIGVHPSLAPLAKILEGSGVDAKVEPEVKDSLGVYCIDAYNETMTEKLVKFMKCGGGLLIGGQAWDWANQGEDERVLFTFPGNLVTSVAGIYFTDNKGDTSFFKVSKKMPKIPVLVSCEDDLSDDREELLHGISELDISNSDCFPSQLLVHGALAFPLGLDSYHGCVIAAARYGRGRVVVTGHKVLFTVGKLGPFLLNAVRWLDGGRRGKVVVQTELRTLSGLLAVGGIDTSIEPNLTSDASVYCFEPVSEVGVKELQEFVAEGGGLFVGAQAWWWAFKNPGVSPLARFPGNLLLNPFGISITSQSLNPGPFRTPKAGIRTYHFRSTLAEFQVIMGRKRGNVEKGWLAKLGPDGAAFLQIPAEEIPAYMSVHRLLRKLLSRYRLPVATRENPVINDCCRGAMLSLATGLAHSGSDLSLLVPEIEDMYSSPYLRPSESPITVEVNCTNPGTRYCWMSTGLYIPGRQIIEVSLPEAAASADLKIQIGCHTDDLTRASKLFRGPLVINRCCLDKPTKSITCLWGGLLYIIVPQNSKLGSVPVTVKGAVHAPYYKLGETTLEEWKRRIQENPGPWGELATDNIILTVPTANLRTLENPEPLLRLWDEVMQAVARLGAEPFPLRLPQRIVADVQISVGWMHAGYPIMCHLESVQELINEKLIRTKGLWGPVHELGRNQQRQEWEFPPHTTEATCNLWCVYVHETVLGIPRSRANIALWPPVREKRVRIYLSKGPNVKNWNAWTALETYLQLQEAFGWEPFIRLFTEYRNQTNLPTENVDKMNLWVKMFSHQVQKNLAPFFEAWAWPIQKEVATSLAYLPEWKENIMKLYLLTQMPH [TCAF1]”, for which the values for the melting temperature in series [1] (cell cycle stage: G1/S) and in series [1] (cell cycle stage: mitosis) were 49.9 °C and 49.8 °C, respectively. Moreover, the thermal stability score was determined as 0.502 in series [2] (setting [5]) and 2.06 in series [2] (cell cycle stage: mitosis). Also, the “solubility change mitosis (log2)” value in series [3] is -0.185. Also, the “solubility in G1/S (log2)” value in series [4] is -0.143.
With “MATRQRESSITSCCSTSSCDADDEGVRGTCEDASLCKRFAVSIGYWHDPYIQHFVRLSKERKAPEINRGYFARVHGVSQLIKAFLRKTECHCQIVNLGAGMDTTFWRLKDEDLLPSKYFEVDFPMIVTRKLHSIKCKPPLSSPILELHSEDTLQMDGHILDSKRYAVIGADLRDLSELEEKLKKCNMNTQLPTLLIAECVLVYMTPEQSANLLKWAANSFERAMFINYEQVNMGDRFGQIMIENLRRRQCDLAGVETCKSLESQKERLLSNGWETASAVDMMELYNRLPRAEVSRIESLEFLDEMELLEQLMRHYCLCWATKGGNELGLKEITY [LCMT1]”, the melting temperature in series [1] (cell cycle stage: G1/S) stood at 52.1 °C; in series [1] (cell cycle stage: mitosis), 53.5 °C. In addition, the figures for the thermal stability score in series [2] (setting [5]) and in series [2] (cell cycle stage: mitosis) were 0.211 and 0.493, respectively. Moreover, in series [3], the “solubility change mitosis (log2)” value is -0.123. Further, the “solubility in G1/S (log2)” value in series [4] was determined as 0.181.
Take “MATSPQKSPSVPKSPTPKSPPSRKKDDSFLGKLGGTLARRKKAKEVSELQEEGMNAINLPLSPIPFELDPEDTMLEENEVRTMVDPNSRSDPKLQELMKVLIDWINDVLVGERIIVKDLAEDLYDGQVLQKLFEKLESEKLNVAEVTQSEIAQKQKLQTVLEKINETLKLPPRSIKWNVDSVHAKSLVAILHLLVALSQYFRAPIRLPDHVSIQVVVVQKREGILQSRQIQEEITGNTEALSGRHERDAFDTLFDHAPDKLNVVKKTLITFVNKHLNKLNLEVTELETQFADGVYLVLLMGLLEGYFVPLHSFFLTPDSFEQKVLNVSFAFELMQDGGLEKPKPRPEDIVNCDLKSTLRVLYNLFTKYRNVE [PARVA]”: the melting temperature in series [1] (cell cycle stage: G1/S) came out at 51 °C; in series [1] (cell cycle stage: mitosis), 50.8 °C. The thermal stability score in series [2] (setting [5]) turned out to be 1.2; in series [2] (cell cycle stage: mitosis) it was 1.23. Moreover, in series [3], the “solubility change mitosis (log2)” value was -0.0689. In addition, the “solubility in G1/S (log2)” value in series [4] was 0.479.
Take “MATSRYEPVAEIGVGAYGTVYKARDPHSGHFVALKSVRVPNGGGGGGGLPISTVREVALLRRLEAFEHPNVVRLMDVCATSRTDREIKVTLVFEHVDQDLRTYLDKAPPPGLPAETIKDLMRQFLRGLDFLHANCIVHRDLKPENILVTSGGTVKLADFGLARIYSYQMALTPVVVTLWYRAPEVLLQSTYATPVDMWSVGCIFAEMFRRKPLFCGNSEADQLGKIFDLIGLPPEDDWPRDVSLPRGAFPPRGPRPVQSVVPEMEESGAQLLLEMLTFNPHKRISAFRALQHSYLHKDEGNPE [CDK4]”: the results for the melting temperature in series [1] (cell cycle stage: G1/S) and in series [1] (cell cycle stage: mitosis) were 52.7 °C and 52.4 °C, respectively. Moreover, the thermal stability score in series [2] (setting [5]) is 0.0522; in series [2] (cell cycle stage: mitosis) it was -0.366. The “solubility change mitosis (log2)” value in series [3] was -0.121. For the same sequence, the “solubility in G1/S (log2)” value in series [4] was 0.218.
